The values below come from patent US20230295310A1 (ABCELLERA BIOLOGICS, published 2023).

For orientation: Kd means the equilibrium constant for the complex coming apart. Read a low Kd as tighter binding.

Test [1] has as its target T1, human CD3e/d (human, UniProt P07766 23-126; P04234 22-105).
T1 construct: Bought soluble protein; also called hCD3e/d; human CD3/ed (Sino CT038-H2508H)
Nature of the test: SPR (Carterra LSA), mAb on chip. Put shortly:
(§1)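 Purified mAbs amine-coupled (EDC/S-NHS) at 10 μg/mL in 10 mM NaOAc pH 4.25 onto an HC-30M chip, with benchmark and negative-control mAbs; analyte flowed over the array. Double-referenced sensorgrams fitted globally to a 1:1 Langmuir model for ka, kd and KD.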

In test [2] the target is T2, human CD3e/g (human, UniProt P07766 23-126; P09693 23-116).
T2 construct: Bought soluble protein; also called hCD3e/g; human CD3e/g (Acro CDD-C52W4)
T2 sequence (P07766 23-126, chain 1 of 2): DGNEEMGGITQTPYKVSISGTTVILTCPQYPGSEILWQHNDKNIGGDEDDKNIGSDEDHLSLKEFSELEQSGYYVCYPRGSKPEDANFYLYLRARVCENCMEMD
T2 sequence (P09693 23-116, chain 2 of 2): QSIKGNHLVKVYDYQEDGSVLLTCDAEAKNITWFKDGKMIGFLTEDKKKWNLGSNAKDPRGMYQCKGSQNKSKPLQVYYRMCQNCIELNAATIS
In words: SPR (Carterra LSA), mAb on chip. Put shortly: as §1

Changes are numbered by the printed parent chain.

T1 sequence (P07766 23-126, chain 1 of 2): as the sequence (P07766 23-126, chain 1 of 2) above
T1 sequence (P04234 22-105, chain 2 of 2): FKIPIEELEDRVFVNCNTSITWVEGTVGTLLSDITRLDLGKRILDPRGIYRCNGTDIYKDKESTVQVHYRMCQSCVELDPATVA

B1: mAb 216 (antibody, V domains shown)
VH: QVQLVESGGGVVQPGRSLRLSCAASGFTFSGYGMHWVRQAPGKGLEWVAIIYYNGKKEYYADSVKGRFTISRDNSKNTLYLQMNSLRAEDTAVYYCTRGEGYNWFDPWGQGTLVTVSS
VL: EIVMTQSPATLSVSPGERATLSCRASQSVSSNLAWYQQKPGQAPRLLIYGASTRATGIPARFSGSGSGTEFTLTISSLQSEDFAVYYCKQYKNWPLTFGGGTKVEIK
notes: VH and VL only
Take B1: the Kd in test [1] turned out to be 9.3 nM; in test [2] it was 6.8 nM.

B2: mAb 206 (antibody, V domains shown)
VH: QVQLVESGGGVVQPGRSLRLSCAASGFTFSGYGMHWVRQAPGKGLEWVAIIYYNGNNRKYADSVKGRFTISRDNSKNTVSLQMNSLRVEDTAIYYCTRGDGYNWFVTWGQGTLVTVSS
VL: B1 VL with Q37H, A60V, K89Q, K92N
notes: VH and VL only
As for B2, the Kd in test [1] was 73 nM; in test [2], 33 nM.

B3: mAb 194 (antibody, V domains shown)
VH: QEQLVESGGGVVQPGGSLRLSCAASGFIFSGYGMHWVRQAPGKGLEWVAIIWYNGRKTYYAESVKGRFTISRDNSKNTLSLQMNSLRVEDTAVYYCTAGQGYNWFDPWGQGTLVTVSS
VL: B1 VL with K89Q, Y91F, K92N, N93A, V104M
notes: VH and VL only
B3: the Kd in test [1] is 19 nM; in test [2], 12 nM.

B4: mAb 65 (antibody, V domains shown)
VH: B1 VH with E46D, K56N, K57N, E58K, T97A, E100G, T115I
VL: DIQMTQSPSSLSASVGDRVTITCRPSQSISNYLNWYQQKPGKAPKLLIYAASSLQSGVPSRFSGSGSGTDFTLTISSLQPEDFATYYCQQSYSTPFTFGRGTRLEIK
notes: VH and VL only
In the case of B4, the dissociation constant (Kd) in test [1] was 128 nM; in test [2] it was 101 nM.

B5: mAb 195 (antibody, V domains shown)
VH: B1 VH with V2E, P14S, A23V, T28K, N54D, K57N, E58K, E100A, P107S
VL: B1 VL with S30R, S31N, A51V, G57A, I58F, K89Q, K92N
notes: VH and VL only
On to B5, for which the Kd amounted to 11 nM in test [1] and 7.1 nM in test [2].

B6: mAb 86 (antibody, V domains shown)
VH: B1 VH with V5A, A23E, E46D, N54D, K57N, E58K, T97A, E100G
VL: DIQMTQSPSSLSASVGDRVTITCRPSQTISKYLNWYQQKPGKAPKLLIYAASSLQSGVPSRFSGSGSGTDFTLTISSLQPEDFATYYCQQSYITPITFGRGTRLEIK
notes: VH and VL only
For the molecule B6, the Kd in test [1] is 82.1 nM; in test [2], 91.9 nM.

B7: mAb 83 (antibody, V domains shown)
VH: B1 VH with E46D, K56N, K57N, E58K, T97A, E100G, T115I
VL: B6 VL with T28I, S30I, K31N, I93S, I96F
notes: VH and VL only
As for B7, the results for the Kd in test [1] and in test [2] were 86.5 nM and 53.4 nM, respectively.

B8: mAb 81 (antibody, V domains shown)
VH: B1 VH with V5A, E46D, N54D, K57N, E58K, T97A, E100G
VL: B6 VL with K31N, K39D, I93S
notes: VH and VL only
For the molecule B8, the values for the dissociation constant Kd in test [1] and in test [2] were 101 nM and 69.6 nM, respectively.

B9: mAb 224 (antibody, V domains shown)
VH: B1 VH with T78M, S85G, V93I
VL: B1 VL with A19T, S31N, K89Q, K92N
notes: VH and VL only
Consider B9, for which the equilibrium dissociation constant (Kd) worked out at 39 nM in test [1] and 18 nM in test [2].

B10: mAb 222 (antibody, V domains shown)
VH: B1 VH with L79V
VL: B1 VL with E1K, K92N
notes: VH and VL only
In the case of B10, the equilibrium dissociation constant (Kd) in test [1] amounted to 16 nM; in test [2], 8.2 nM.

B11: mAb 221 (antibody, V domains shown)
VH: B3 VH with E2V, I28T
VL: B1 VL with K89Q, Y91F, K92N, N93A, V104M
notes: VH and VL only
For B11, the dissociation constant Kd turned out to be 38 nM in test [1] and 25 nM in test [2].

B12: mAb 196 (antibody, V domains shown)
VH: B1 VH with V2E, P14S, A23V, T28K, N54D, K57N, E58K, I70V, E100A, P107S
VL: B1 VL with S30R, S31N, A51V, G57A, I58F, K89Q, K92N
notes: VH and VL only
With B12, the dissociation constant Kd in test [1] amounted to 6.9 nM; in test [2], 9.1 nM.

B13: mAb 193 (antibody, V domains shown)
VH: B2 VH
VL: B1 VL with Q37H, A60V, E81D, K89Q, K92N
notes: VH and VL only
Take B13: the Kd came out at 93 nM in test [1] and 29 nM in test [2].

B14: mAb 217 (antibody, V domains shown)
VH: B1 VH with S71F, L79V, N84K
VL: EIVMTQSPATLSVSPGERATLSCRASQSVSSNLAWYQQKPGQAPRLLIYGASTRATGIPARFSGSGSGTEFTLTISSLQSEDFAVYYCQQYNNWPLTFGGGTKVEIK
notes: VH and VL only
For B14, the Kd worked out at 38 nM in test [1] and 17 nM in test [2].

B15: mAb 210 (antibody, V domains shown)
VH: B2 VH with V48L, I93M
VL: B1 VL with T20A, S30T, Q37H, A60V, K89Q, K92N, I106N
notes: VH and VL only
Regarding B15, the Kd came out at 120 nM in test [1] and 59 nM in test [2].

B16: mAb 218 (antibody, V domains shown)
VH: B2 VH with K65R
VL: B1 VL with Q37Y, A60V, K89Q, K92N
notes: VH and VL only
As to B16, the Kd in test [1] amounted to 62 nM; in test [2], 34 nM.

B17: mAb 226 (antibody, V domains shown)
VH: B2 VH
VL: B1 VL with V29I, Q37H, A60V, V85L, K89Q, K92N
notes: VH and VL only
B17: the figures for the Kd in test [1] and in test [2] were 75 nM and 32 nM, respectively.

B18: mAb 215 (antibody, V domains shown)
VH: B2 VH with S25T
VL: B1 VL with Q37R, A60V, K89Q, K92N
notes: VH and VL only
For B18, the dissociation constant (Kd) came to 76 nM in test [1] and 34 nM in test [2].

B19: mAb 212 (antibody, V domains shown)
VH: EVQLLESGGGLVQPGGSLRLSCAASGFTFSNYAMNWVRQAPGKGLEWVSAISGSRSNTYYADSVKGRFTISRDNSKNTLYLQMNSLRAEDTGVYYCAKGAYSKYPYYYYMDVWGKGTTVTVSS
VL: EIVMTQSPATLSLSPGERATLSCRASQSVSSSYLSWYQQKPGQAPRLLIYGASTRAIGIPARFSGSGSGTDFTLTISSLQAEDFAVYYCQQDDNLPWTFGQGTKVEIK
notes: VH and VL only
For the molecule B19, the Kd in test [1] was 11 nM; in test [2] it was 22 nM.

B20: mAb 214 (antibody, V domains shown)
VH: B19 VH with G92A
VL: B19 VL
notes: VH and VL only
Consider B20, for which the Kd in test [1] is 13 nM; in test [2], 25 nM.

B21: mAb 54 (antibody, V domains shown)
VH: EVQLEESGGGLVQPGGSLRLSCAASGFTFSRYSMNWVRQAPGKGLEWFSYISSSSRTIYYADSVKGRFTMSRDNAKNSLYLQMNSLRDEDTAVYFCARGDYYDSEGMDVWGKGTTVTVSS
VL: DIQMTQSPSTLSASVGDRVTITCRASQTITTWLAWYQQKPGKAPKLLIYKASTLESGVPSRFSGSGSGTEFTLTISSLQPDDFATYHCQQYKTFSYTFGQGTKLDIK
notes: VH and VL only
In the case of B21, the Kd in test [1] stood at 553 nM; in test [2], 83.2 nM.
